The results in this text go back to patent US20140178389A1.

Usually EC50 stands for the concentration needed to bring the measured effect to its halfway point. A word on the Kd: it is the free concentration of one partner at which half of the binding sites on the other are occupied at equilibrium, for simple one-to-one binding.

Experiment [1] has as its target recombinant cynomolgus IL-1β (cynomolgus) (UniProt P79182). The experiment can be described thus: flow cytometry of yeast-displayed scFv, titration of biotinylated IL-1b, 25 °C, 30 min, mean fluorescence [Parental]. (In general: A flow cytometer gives signals particle by particle.)
Experiment [2] concerns the target recombinant human IL-1β (human) (UniProt P01584). The description is as above.
Experiment [3] addresses recombinant cynomolgus IL-1β (cynomolgus) (UniProt P79182). As to the kind of experiment: yeast surface display, flow cytometry with biotinylated antigen.
Experiment [4] concerns the target recombinant human IL-1β (human) (UniProt P01584). The experiment is described as above.

Chain of recombinant human IL-1β (human) (P01584 117-269): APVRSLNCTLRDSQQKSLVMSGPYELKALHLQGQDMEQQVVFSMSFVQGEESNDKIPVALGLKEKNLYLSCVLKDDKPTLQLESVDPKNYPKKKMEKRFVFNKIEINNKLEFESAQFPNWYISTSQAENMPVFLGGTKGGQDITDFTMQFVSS
Chain of recombinant cynomolgus IL-1β (cynomolgus) (P79182 117-268 limits assumed): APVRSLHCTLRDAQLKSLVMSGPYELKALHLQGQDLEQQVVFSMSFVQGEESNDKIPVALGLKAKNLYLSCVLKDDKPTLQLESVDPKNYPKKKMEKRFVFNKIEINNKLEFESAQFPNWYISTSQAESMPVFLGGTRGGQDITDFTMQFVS

B1: h1B12.1 scFv displayed on the surface of yeast (scFv, part only; not given: linker, domain order, yeast display partner, V domains shown, not shown: another chain or arm of the molecule; large carriers; small tags and cut ends)
VH: EVQLQESGPGLVKPSETLSLTCTVSGFSLSDYGVSWIRQPPGKGLEWLGLIWGGGDTYYNSPLKSRLTISKDNSKSQVSLKLSSVTAADTAVYYCAKQRTLWGYDLYGMDYWGQGTLVTVSS
VL: DTQVTQSPSSLSASVGDRVTITCITSTDIDVDMNWYQQKPGKPPKLLISQGNTLRPGVPSRFSSSGSGTDFTFTISSLQPEDFATYYCLQSDNLPLTFGQGTKLEIK
Consider B1, for which the concentration for a half-maximal effect (EC50) in experiment [1] stood at 23.5 nM; in experiment [2], 15.1 nM. For the same molecule, the Kd in experiment [3] and in experiment [4] was 10 to 30 nM each time.
